For experiment [1], the target named is Antigen 1 (Consensus B, biotinylated peptide from gp41 epitope region II of HIV1 subtype B) (HIV1 subtype B (consensus)). As to the kind of experiment: bridge ELISA, Bi-Antigen 1 + Dig-Antigen 3.
Experiment [2] deals with Antigen 2 (Consensus D, biotinylated peptide from gp41 epitope region II of HIV1 subtype D) (HIV1 subtype D (consensus)). As to the kind of experiment: bridge ELISA, Bi-Antigen 2 + Dig-Antigen 4.

Our source for the signal values is patent publication US20030054336A1.

Regarding Negative control, the signal was 0.05 U in experiment [1] and 0.03 U in experiment [2].
